One substance from patent US20140364360A1 can be followed below.

Bounds are passed on as bounds.

Assay [1] deals with CCR5 (human) (UniProt P51681). The assay can be described thus: flow cytometry competition on CD8+ T cells of human PBMC; 5P12-RANTES at 0.8 ng/ml or less; competitor antibody 2D7.
For assay [2], the target named is CCR5 (human) (UniProt P51681). The assay can be described thus: flow cytometry competition on CD8+ T cells of human PBMC; 5P12-RANTES at 100 ng/ml or greater; competitor antibody 2D7. (In general: A flow cytometer gives signals particle by particle.)

Sequence of UniProt P51681 (P51681 whole entry): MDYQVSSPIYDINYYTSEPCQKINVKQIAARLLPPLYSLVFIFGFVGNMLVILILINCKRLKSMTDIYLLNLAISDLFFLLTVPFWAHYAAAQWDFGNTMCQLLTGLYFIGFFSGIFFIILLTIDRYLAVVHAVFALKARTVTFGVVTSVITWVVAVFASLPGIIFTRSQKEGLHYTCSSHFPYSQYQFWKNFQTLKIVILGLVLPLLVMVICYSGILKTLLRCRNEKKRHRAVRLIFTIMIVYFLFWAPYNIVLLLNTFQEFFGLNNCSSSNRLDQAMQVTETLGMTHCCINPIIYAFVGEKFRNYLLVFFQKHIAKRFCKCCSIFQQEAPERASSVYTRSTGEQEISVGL

Consider 5P12-RANTES (ligand), for which the results for the 2D7% binding in assay [1] and in assay [2] were 20% and less than 1%, respectively.
